Laboratory results as given in US20230265198A1 (TWIST BIOSCIENCE, published 2023).

Molecular target: T1, neuropilin-1 (NRP1) on HEK293 cells overexpressing NRP1 (UniProt O14786 22-923, limits assumed)
T1 construct: whole, on cells
Assay: flow cytometry, HEK293-NRP1 vs HEK293

| 100 nM FACS (MFI Ratio) | Binder |
| --- | --- |
| 3 | NRP1-278 (antibody, IgG2, V domains shown) VH: EVQLLESGGGLVQPGGSLRLSCAASGFTFRRYAMSWVRQAPGKGLEWVSAISGSGDRTYYADSVKGRFTISRDNSKNTLYLQMNSLRAEDTAVYYCARDRGLRYFDWSFDYWGQGTLVTVSS VL: DIQMTQSPSSLSASVGDRVTITCRTSQSISSYLNWYQQKPGKAPKLLIYAAAGLRGGVPSRFSGSGSGTDFTLTISSLQPEDFATYYCQQSFTTPWTFGGGTKVEIK |
| 0.9 | NRP1-257 (antibody, IgG2, V domains shown) VH: EVQLLESGGGLVQPGGSLRLSCAASGFTFSRYGMSWVRQAPGKGLEWVSTISGSGGSTSYADSVKGRFTISRDNSKNTLYLQMNSLRAEDTAVYYCARASHVDIPRRAPKRRHSFDSWGQGTLVTVSS VL: DIQMTQSPSSLSASVGDRVTITCRASQTISNYVNWYQQKPGKAPKLLIYAASSLHAGVPSRFSGSGSGTDFTLTISSLQPEDFATYYCQQGYSTPLTFGGGTKVEIK |
| 0.4 | NRP1-287 (antibody, IgG2, V domains shown) VH: EVQLLESGGGLVQPGGSLRLYCAASGFTFGSYGMSWVRQAPGKGLEWVSSISGSGGSTYYTDSVKGRFTISRDNSKNTLYLQMNSLRAEDTAVYYCARDLARGTMPRGVIIPHNWFDPWGQGTLVTVSS VL: DIQMTQSPSSLSASVGDRVTITCRASQTISNYVNWYQQKPGKAPKLLIYAASSLHAGVPSRFSGSGSGTDFTLTISSLQPEDFATYYCQQGYSTPLTFGGGTKVEIK |
| 3 | NRP1-270 (antibody, IgG2, V domains shown) VH: EVQLLESGGGLVQPGGSLRLSCAASGFTFSIYAMGWVRQAPGKGLEWVSSISGRGGSIYYADSVKGRFTISRDNSKNTLYLQMNSLRAEDTAVYYCARSAGTFDYWGQGTLVTVSS VL: DIQMTQSPSSLSASVGDRVTITCRASQSIRSHLNWYQQKPGKAPKLLIYAASSVESGVPSRFSGSGSGTDFTLTISSLQPEDFATYYCQQSYSAPLTFGGGTKVEIK |
| 0.7 | NRP1-258 (antibody, IgG2, V domains shown) VH: EVQLLESGGGLVQPGGSLRLSCAASGFRFGNYAMSWVRQAPGKGLEWVSAISGSAGRTYYADSVKGRFTISRDNSKNTLYLQMNSLRAEDTAVYYCARAPFQSRIGLAGTRRHKRDNFDQWGQGTLVTVSS VL: DIQMTQSPSSLSASVGDRVTITCRASQSIDNFLNWYQQKPGKAPKLLIYGASKLQRGVPSRFSGSGSGTDFTLTISSLQPEDFATYYCQQSYSSPPVTFGGGTKVEIK |
| 1.4 | NRP1-281 (antibody, IgG2, V domains shown) VH: EVQLLESGGGLVQPGGSLRLSCAASGFTFRSLAVSWVRQAPGKGLEWVSTITGSGGATYYADSVKGRFTISRDNSKNTLYLQMNSLRAEDTAVYYCVRALAGRRDHWGQGTLVTVSS VL: DIQMTQSPSSLSASVGDRVTITCRASQSIRTSLNWYQQKPGKAPKLLIYAASALHSGVPSRFSGSGSGTDFTLTISSLQPEDFATYYCQQSYSTLPITFGGGTKVEIK |
| 2.1 | NRP1-268 (antibody, IgG2, V domains shown) VH: EVQLLESGGGLVQPGGSLRLSCAASGFIFSTYALSWVRQAPGKGLEWVSGINGSGASTYYADSVKGRFTISRDNSKNTLYLQMNSLRAEDTAVYYCAREGQGWTSLLPRPSQRRPQRRPPYYGLDVWGQGTLVTVSS VL: DIQMTQSPSSLSASVGDRVTITCRGSQSITRFLNWYQQKPGKAPKLLIYATSRLQSGVPSRFSGSGSGTDFTLTISSLQPEDFATYYCQQSHSFPRTFGGGTKVEIK |
| 1 | NRP1-284 (antibody, IgG2, V domains shown) VH: EVQLLESGGGLVQPGGSLRLSCAASGFTFSSSAMNWVRQAPGKGLEWVSAITSSGGSTYYADSVKGRFTISRDNSKNTLYLQMNSLRAEDTAVYYCARVTKMSPRSVGRRLRKGDGLDVWGQGTLVTVSS VL: DIQMTQSPSSLSASVGDRVTITCRASQSISRSLSWYQQKPGKAPKLLIYSASRLQSGVPSRFSGSGSGTDFTLTISSLQPEDFATYYCLQSYSSPRTFGGGTKVEIK |
| 0.7 | NRP1-279 (antibody, IgG2, V domains shown) VH: EVQLLESGGGLVQPGGSLRLSCAASGFTFSRHAMSWVRQAPGKGLEWVSGISGSGGRTHYADSVKGRFTISRDNSKNTLYLQMNSLRAEDTAVYYCARDPSTIAARRANHYYMDVWGQGTLVTVSS VL: DIQMTQSPSSLSASVGDRVTITCRTSQSISNFLNWYQQKPGKAPKLLIYRASTLQTGVPSRFSGSGSGTDFTLTISSLQPEDFATYYCQQSYKTPRTFGGGTKVEIK |
| 1.4 | NRP1-286 (antibody, IgG2, V domains shown) VH: EVQLLESGGGLVQPGGSLRLSCAASGFTLSAYAMNWVRQAPGKGLEWVSSISGSGGATYYADSVKGRFTISRDNSKNTLYLQMNSLRAEDTAVYYCARVMKTTRRIVGRRLRKGDGLDVWGQGTLVTVSS VL: DIQMTQSPSSLSASVGDRVTITCRASQSIRNNLSWYQQKPGKAPKLLIYAASSLQTGVPSRFSGSGSGTDFTLTISSLQPEDFATYYCQQSFTIPRTFGGGTKVEIK |
| 0.9 | NRP1-289 (antibody, IgG2, V domains shown) VH: EVQLLESGGGLVQPGGSLRLSCAASGFTISSSAMGWVRQAPGKGLEWVSALSGSGGSKYYADSVKGRFTISRDNSKNTLYLQMNSLRAEDTAVYYCAKEALPRASRRAAAVRYFHHWGQGTLVTVSS VL: DIQMTQSPSSLSASVGDRVTITCRASQNIVRYLNWYQQKPGKAPKLLIYTASNLQTGVPSRFSGSGSGTDFTLTISSLQPEDFATYYCQESYSRTFGGGTKVEIK |
| 2.1 | NRP1-244 (antibody, IgG2, V domains shown) VH: EVQLLESGGGLVQPGGSLRLSCAASGFTFTSYGMSWVRQAPGKGLEWVSTISGSGGYTYYADSVKGRFTISRDNSKNTLYLQMNSLRAEDAAVYYCALWNRYGGLSYWGQGTLVTVSS VL: DIQMTQSPSSLSASVGDRVTITCRASQSIATYLHWYQQKPGKAPKLLIYGTSNLQSGVPSRFSGSGSGTDFTLTISSLQPEDFATYYCQQSYRTPGTFGGGTKVEIK |
| 5 | NRP1-248 (antibody, IgG2, V domains shown) VH: EVQLLESGGGLVQPGGSLRLSCAASGFTFSKYAMSWVRQAPGKGLEWVSSISTSGGSTYYADSVKGRFTISRDNSKNTLYLQMNSLRAEDTAVYYCARGLLRLKPERRVRTTYYYGMDVWGQGTLVTVSS VL: DIQMTQSPSSLSASVGDRVTITCRTSQSIGSYLNWYQQKPGKAPKLLIYASSSLQSGVPSRFSGSGSGTDFTLTISSLQPEDFATYYCQQSYSTPFSFGGGTKVEIK |
| 3 | NRP1-264 (antibody, IgG2, V domains shown) VH: EVQLLESGGGLVQPGGSLRLSCAASGFTFRGYAMSWVRQAPGKGLEWVSTISGSGGVTYYADSVKGRFTISRDNSKNTLYLQMNSLRAEDTAVYYCARVRVDARPRGMMSRYYGMDVWGQGTLVTVSS VL: DIQMTQSPSSLSASVGDRVTITCRASQSISNRLNWYQQKPGKAPKLLIYGASSLQPGVPSRFSGSGSGTDFTLTISSLQPEDFATYYCQQSFNTPRTFGGGTKVEIK |
| 1.3 | NRP1-285 (antibody, IgG2, V domains shown) VH: EVQLLESGGGLVQPGGSLRLSCAASGFTLSNYGMSWVRQAPGKGLEWVSTISGSGSGTYYADSVKGRFTISRDNSKNTLYLQMNSLRAEDTAVYYCARAGKAFDYWGQGTLVTVSS VL: DIQMTQSPSSLSASVGDRVTITCRASQSVSSYLSWYQQKPGKAPKLLIYAATSLESGVPSRFSGSGSGTDFTLTISSLQPEDFATYYCQQSYRTPLTFGGGTKVEIK |
| 2.8 | NRP1-254 (antibody, IgG2, V domains shown) VH: EVQLLESGGGLVQPGGSLRLSCAASGFTFNTHAMSWVRQAPGKGLEWVSTISGSGGYTYYADSVKGRFTISRDNSKNTLYLQMNSLRAEDTAVYYCAKDLAAAGDYWGQGTLVTVSS VL: DIQMTQSPSSLSASVGDRVTITCRASQRISTYLNWYQQKPGKAPKLLIYAASHLQSGVPSRFSGSGSGTDFTLTISSLQPEDFATYYCQQSHTTPLTFGGGTKVEIK |
| 2.6 | NRP1-276 (antibody, IgG2, V domains shown) VH: EVQLLESGGGLVQPGGSLRLSCAASGFPFTSYAMSWVRQAPGKGLEWVSAISSSGTGTYYADSVKGRFTISRDNSKNTLYLQMNSLRAEDTAVYYCARLKRGGTNLVRKATRYQFYGMDAWGQGTLVTVSS VL: DIQMTQSPSSLSASVGDRVTITCRASQSVSRYLNWYQQKPGKAPKLLIYGASTLQAGVPSRFSGSGSGTDFTLTISSLQPEDFATYYCQQSYTTPLTFGGGTKVEIK |
| 1 | NRP1-274 (antibody, IgG2, V domains shown) VH: EVQLLESGGGLVQPGGSLRLSCAASGFTFSKYAMNWVRQAPGKGLEWVSTISGSGGSTSYADSVKGRFTISRDNSKNTLYLQMNSLRAEDTAVYYCARGQDIKRNVMRRGGRLNWFDPWGQGTLVTVSS VL: DIQMTQSPSSLSASVGDRVTITCRASQSIGSNLNWYQQKPGKAPKLLIYGATNLQSGVPSRFSGSGSGTDFTLTISSLQPEDFATYYCQQSYRTPLTFGGGTKVEIK |
| 1 | NRP1-252 (antibody, IgG2, V domains shown) VH: EVQLLESGGGLVQPGGSLRLSCAASGFTFRSLAVSWVRQAPGKGLEWVSTITGSGGATYYADSVKGRFTISRDNSKNTLYLQMNSLRAEDTAVYYCARGRRGMPTPDTVRKMSKSHLYFDSWGQGTLVTVSS VL: DIQMTQSPSSLSASVGDRVTITCRARQSISTYLNWYQQKPGKAPKLLIYSASTLESGVPSRFSGSGSGTDFTLTISSLQPEDFATYYCQQSYRTPWTFGGGTKVEIK |
| 3.9 | NRP1-288 (antibody, IgG2, V domains shown) VH: EVQLLESGGGLVQPGGSLRLSCAASGFTFSTFAMSWVRQAPGKGLEWVSTISGSGTSTYYADSVKGRFTISRDNSKNTLYLQMNSLRAEDTAVYYCARFPGDRGYYHYYMDVWGQGTLVTVSS VL: DIQMTQSPSSLSASVGDRVTITCRASQSIARYLNWYQQKPGKAPKLLIYRASRLQSGVPSRFSGSGSGTDFALTISSLQPEDFATYYCQQSFSPPFTFGGGTKVEIK |
| 2.5 | NRP1-265 (antibody, IgG2, V domains shown) VH: EVQLLESGGGLVQPGGSLRLSCAASGFTFGKYAMTWVRQAPGKGLEWVSGISGSGGRTNYADSVKGRFTISRDNSKNTLYLQMNSLRAEDTAVYYCARDFVAWRGGFRRYYSYNGMDVWGQGTLVTVSS VL: DIQMTQSPSSLSASVGDRVTITCRASQYVSTYLNWYQQKPGKAPKLLIYGTSRLQSGVPSRFSGSGSGTDFTLTISSLQPEDFATYYCQQSYSTPKTFGGGTKVEIK |
